In assay [1] the target is T1, MRAS(1–178)–Avi, biotinylated, wild type (human, UniProt O14807 1-178, biotin on the Avi tag).
T1 chain: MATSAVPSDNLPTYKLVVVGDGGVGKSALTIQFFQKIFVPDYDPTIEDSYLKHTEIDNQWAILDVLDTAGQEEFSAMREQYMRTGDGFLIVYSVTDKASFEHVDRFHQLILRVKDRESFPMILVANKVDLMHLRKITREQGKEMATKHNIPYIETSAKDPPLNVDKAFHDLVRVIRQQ
As to the kind of experiment: SPR; +PP1Cα.

Assay [2] concerns the target T1, MRAS(1–178)–Avi, biotinylated, wild type. The assay can be described thus: SPR; +PP1Cα(P50R). For orientation: SPR reads the build-up and loss of mass on a sensor chip optically.

One may read the Kd as a measure of binding affinity in units of concentration.

B1: SHOC2 (residues 80–582, LRR domain), wild type (domain or fragment)
chain: GTRKKSSNAEVIKELNKCREENSMRLDLSKRSIHILPSSIKELTQLTELYLYSNKLQSLPAEVGCLVNLMTLALSENSLTSLPDSLDNLKKLRMLDLRHNKLREIPSVVYRLDSLTTLYLRFNRITTVEKDIKNLSKLSMLSIRENKIKQLPAEIGELCNLITLDVAHNQLEHLPKEIGNCTQITNLDLQHNELLDLPDTIGNLSSLSRLGLRYNRLSAIPRSLAKCSALEELNLENNNISTLPESLLSSLVKLNSLTLARNCFQLYPVGGPSQFSTIYSLNMEHNRINKIPFGIFSRAKVLSKLNMKDNQLTSLPLDFGTWTSMVELNLATNQLTKIPEDVSGLVSLEVLILSNNLLKKLPHGLGNLRKLRELDLEENKLESLPNEIAYLKDLQKLVLTNNQLTTLPRGIGHLTNLTHLGLGENLLTHLPEEIGTLENLEELYLNDNPNLHSLPFELALCSKLSIMSIENCPLSHLPPQIVAGGPSFIIQFLKMQGPYRAMV
For B1, the dissociation constant Kd in assay [1] is 86.3 nM; in assay [2], 34.8 nM.

Values taken from publication PMC9452295 (2022).
